Assay [1] concerns the target T1, human CD3 (human, UniProt P07766 22-207).
T1 construct: also called CD3 on the human T-cell line Jurkat; CD3 on human T cells
Put plainly: flow cytometry on Jurkat cells, supernatant preparations, FIG. 21. The protocol:
(§1) Jurkat cells (DSMZ, Brunswick, Germany) were thawed at 37° C. and washed once in 30 mL PBS and spun for 10 minutes at 300×g at 4° C. Cell pellet was resuspended in 25 mL of PBS/0.1% BSA/0.02% azide at a final concentration of 0.8×10⁶ cells/mL. 100 μL of this cell suspension (0.8×10⁵ cells/well) was transferred into polystyrene 96-well round-bottom plates (Greiner Bio-one, Alphen a/d Rijn, The Netherlands) and incubated with serial dilutions of supernatant preparations (range 3 to 10,000 ng/mL in 3-fold dilutions) in PBS/0.1% BSA/0.02% azide at 4° C. for 30 minutes. After washing three times in PBS/0.1% BSA/0.02% azide, Jurkat cells were incubated in 50 μL with secondary antibody at 4° C. for 30 min. As a secondary antibody, R-Phycoerythrin (PE)-conjugated goat-anti-human IgG F(ab′)2 (Jackson ImmunoResearch Laboratories, Inc., West Grove, Pa.) diluted 1/200 in PBS/0.1% BSA/0.02% azide, was used for all experiments. Next, Jurkat cells were washed twice in PBS/0.1% BSA/0.02% azide, re-suspended in 150 μL PBS/0.1% BSA/0.02% azide and analyzed on a FACS Cantoll (BD Biosciences). Binding curves were analyzed using nonlinear regression (sigmoidal dose-response with variable slope) using GraphPad Prism V 5.04 software (GraphPad Software, San Diego, Calif., USA).
A general note: Flow cytometry measures light scatter and fluorescence of single cells or particles in a stream.

The target of assay [2] is T2, cynomolgus CD3 (cynomolgus monkey, UniProt Q95LI5 22-198).
T2 construct: also called CD3 on the cynomolgus T-cell line HSC-F; cynomolgus CD3ε (epsilon)
T2 sequence (Q95LI5 22-198): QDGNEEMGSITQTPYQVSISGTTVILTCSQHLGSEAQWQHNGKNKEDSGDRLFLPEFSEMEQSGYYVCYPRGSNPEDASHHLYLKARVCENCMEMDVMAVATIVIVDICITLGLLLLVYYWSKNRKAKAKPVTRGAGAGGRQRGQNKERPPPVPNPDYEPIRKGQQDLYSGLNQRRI
Put plainly: flow cytometry on HSC-F cells, FIG. 2B. The protocol: In addition to the non-activating mutations, LFLEDA, the antibody variants contained F405L or K409R mutations as described in Example 1.
Cells (1×10⁵ cells/well) were incubated in polystyrene 96-well round-bottom plates (Greiner bio-one 650101) with serial dilutions of antibody preparations (range 5 to 10,000 ng/mL in 3-fold dilutions) in 100 μL PBS/0.1% BSA/0.02% azide at 4° C. for 30 min.
After washing twice in PBS/0.1% BSA/0.02% azide, cells were incubated in 100 μL with secondary antibody at 4° C. for 30 min. As a secondary antibody, R-Phycoerythrin (PE)-conjugated goat-anti-human IgG F(ab′)2 (109-116-098, Jackson ImmunoResearch Laboratories, Inc., West Grove, Pa.) diluted 1/100 in PBS/0.1% BSA/0.02% azide, was used for all experiments. Next, cells were washed twice in PBS/0.1% BSA/0.02% azide, re-suspended in 150 μL PBS/0.1% BSA/0.02% azide and analyzed on a FACS Cantoll (BD Biosciences). Binding curves were analyzed using non-linear regression (sigmoidal dose-response with variable slope) using GraphPad Prism V 5.04 software (GraphPad Software, San Diego, Calif., USA).

The target of assay [3] is T1, human CD3. Put plainly: flow cytometry on isolated human T cells, FIG. 22. The protocol: As a secondary antibody, R-Phycoerythrin (PE)-conjugated goat-anti-human IgG F(ab′)2 (Jackson ImmunoResearch Laboratories, Inc., West Grove, Pa.) diluted 1/200 in PBS/0.1% BSA/0.02% azide, was used for all experiments. […] Binding curves were analyzed using nonlinear regression (sigmoidal dose-response with variable slope) using GraphPad Prism V 5.04 software (GraphPad Software, San Diego, Calif., USA).

For assay [4], the target named is T1, human CD3. Put plainly: flow cytometry on Jurkat cells, FIG. 21. Here is the method: as §1

Where a chain is given by its changes, count along the chain named. In names and notes the source's numbering stands.

T1 sequence (P07766 22-207 limits assumed): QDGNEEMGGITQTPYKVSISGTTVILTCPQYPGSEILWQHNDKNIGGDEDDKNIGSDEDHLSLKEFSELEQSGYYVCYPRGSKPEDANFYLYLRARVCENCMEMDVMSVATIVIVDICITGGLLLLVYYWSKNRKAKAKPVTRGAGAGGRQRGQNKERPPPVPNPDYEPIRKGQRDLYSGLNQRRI

B1: IgG1-huCD3-H1-LFLEDA-LF10L (antibody, V domains shown)
VH: EVKLVESGGGLVQPGGSLRLSCAASGFTFNTYAMNWVRQAPGKGLEWVARIRSKYNNYATYYADSVKDRFTISRDDSKSSLYLQMNNLKTEDTAMYYCVRHGNFGNSYVSWFAYWGQGTLVTVSS
VL: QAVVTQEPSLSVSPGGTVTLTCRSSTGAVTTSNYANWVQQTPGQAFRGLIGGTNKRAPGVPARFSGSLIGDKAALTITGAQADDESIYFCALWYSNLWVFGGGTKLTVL
notes: IgG1 with LFLEDA (L234F/L235E/D265A); tested as supernatant preparation; also called IgG1-huCD3-H1L1-LF10L (with LFLEDA)
Turning to B1, the EC50 (in general, the concentration giving half of the maximal effect) in assay [1] stood at 0.169 µg/mL.

B2: bsIgG1 huCD3-H3L1×HER2-LFLEDA (bispecific antibody, V domains shown)
VH 1: B1 VH with Q13K, G16R, S80I, N87S
VL 1: not shown
VH 2: QVQLVQSGAEVKKPGASVKVSCKASGYTFTNYGISWVRQAPGQGLEWMGWLSAYSGNTIYAQKLQGRVTMTTDTSTTTAYMELRSLRSDDTAVYYCARDRIVVRPDYFDYWGQGTLVTVSS
VL 2: EIVLTQSPATLSLSPGERATLSCRASQSVSSYLAWYQQKPGQAPRLLIYDASNRATGIPARFSGSGSGTDFTLTISSLEPEDFAVYYCQQRSNWPRTFGQGTKVEIK
notes: LFLEDA = L234F/L235E/D265A; also called bsIgG1 huCD3-H3L1-LFLEDA
For B2, the binding result in assay [2] is listed as “binds”.

B3: bsIgG1 CD3×HER2 (bispecific antibody, V domains shown)
VH 1: B1 VH with V5L, G15K, R19K, K78Q, S80I, S125A
VL 1: QAVVTQESALTTSPGETVTLTCRSSTGAVTTSNYANWVQEKPDHLFTGLIGGTNKRAPGVPARFSGSLIGDKAALTITGAQTEDEAIYFCALWYSNLWVFGGGTKLTVL
VH 2: B2 VH 2
VL 2: B2 VL 2
On to B3, for which the binding result in assay [2] was “binds”.

B4: IgG1-huCD3-H1-LFLEDA-LT41K (antibody, V domains shown)
VH: B1 VH
VL: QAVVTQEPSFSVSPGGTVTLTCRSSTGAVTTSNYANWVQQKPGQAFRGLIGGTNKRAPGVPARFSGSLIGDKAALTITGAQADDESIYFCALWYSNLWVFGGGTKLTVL
notes: IgG1 with LFLEDA; supernatant preparation; also called T41K mutant
Molecule B4 came in with an EC50 in assay [1] of 0.096 µg/mL.

B5: bsIgG1-huCD3-H1L1-LK55N/HER2-LFLEDA (bispecific antibody, V domains shown)
VH 1: B1 VH
VL 1: not shown
VH 2: B2 VH 2
VL 2: B2 VL 2
notes: LFLEDA = L234F/L235E/D265A; also called bsIgG1-huCD3-LK55N/HER2-LFLEDA
Consider B5, for which the EC50 in assay [3] amounted to 0.61 µg/mL.

B6: IgG1-huCD3-H1-LFLEDA-LLKNH (antibody, V domains shown)
VH: B1 VH
VL: QAVVTQEPSLSVSPGGTVTLTCRSSTGAVTTSNYANWVQQKPGQAFRGLIGGTNNRAPGVPARFSGSLIGDKAALTITGAQADDESIYFCALWYSNHWVFGGGTKLTVL
notes: IgG1 with LFLEDA; supernatant preparation; also called LKNH mutant
In assay [1], B6 returned an EC50 of 0.438 µg/mL. The “fold lower apparent affinity than wild type IgG1-huCD3-H1L1-LFLEDA” value in assay [4] was 5 fold.

B7: IgG1-huCD3-H1-LFLEDA-LK55N (antibody, V domains shown)
VH: B1 VH
VL: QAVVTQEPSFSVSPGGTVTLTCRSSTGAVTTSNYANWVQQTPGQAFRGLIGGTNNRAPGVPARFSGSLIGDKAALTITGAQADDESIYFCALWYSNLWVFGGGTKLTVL
notes: IgG1 with LFLEDA; supernatant preparation; also called K55N mutant
In assay [1], B7 displayed an EC50 of 0.531 µg/mL. The “fold lower apparent affinity than wild type IgG1-huCD3-H1L1-LFLEDA” value in assay [4] came out at 5 fold.

B8: IgG1-huCD3-H1-LFLEDA-LL97H (antibody, V domains shown)
VH: B1 VH
VL: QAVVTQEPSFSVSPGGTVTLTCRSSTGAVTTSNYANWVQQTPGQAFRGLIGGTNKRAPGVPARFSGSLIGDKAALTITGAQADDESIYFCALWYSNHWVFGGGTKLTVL
notes: IgG1 with LFLEDA; supernatant preparation
Molecule B8 gave an EC50 in assay [1] of 0.095 µg/mL.

These data come from patent US20160333095A1 (Genmab, published 2016).
